Earlier results as cited in patent publication US6153653A, “Choline compositions and uses thereof” (Protarga, Inc., priority 1997, dated 2000).

Settings: relative to native tPA

B1: C84S tPA: tPA variants in which a cysteine at position 84 of the growth factor domain of native tPA is replaced by serine (protein, UniProt P00750 36-562, looked up, variant C84S)
Tissue-type plasminogen …: SYQVICRDEKTQMIYQQHQSWLRPVLRSNRVEYCWCNSGRAQCHSVPVKSCSEPRCFNGGTCQQALYFSDFVCQCPEGFAGKCSEIDTRATCYEDQGISYRGTWSTAESGAECTNWNSSALAQKPYSGRRPDAIRLGLGNHNYCRNPDRDSKPWCYVFKAGKYSSEFCSTPACSEGNSDCYFGNGSAYRGTHSLTESGASCLPWNSMILIGKVYTAQNPSAQALGLGKHNYCRNPDGDAKPWCHVLKNRRLTWEYCDVPSCSTCGLRQYSQPQFRIKGGLFADIASHPWQAAIFAKHRRSPGERFLCGGILISSCWILSAAHCFQERFPPHHLTVILGRTYRVVPGEEEQKFEVEKYIVHKEFDDDTYDNDIALLQLKSDSSRCAQESSVVRTVCLPPADLQLPDWTECELSGYGKHEALSPFYSERLKEAHVRLYPSSRCTSQHLLNRTVTDNMLCAGDTRSGGPQANLHDACQGDSGGPLVCLNDGRMTLVGIISWGLGCGQKDVPGVYTKVTNYLDWIRDNMRP
In vivo
  in vivo half life (in words): longer in vivo half life than native tPA
  functional activity (in words): retains the functional activity of native tPA
